Assay results reported in US20050227302A1, “Induction of apoptosis via ARTS-IAP complexes” (priority 2004, published 2005).
Where a SMILES comes first, the peptide text is derived from it. The star is where a group is joined. Cbz = O=C(OCc1ccccc1)*

Columns and labels:
XIAP [1] = assay: Co-immunoprecipitation of ARTS-XIAP complexes in COS-7 cells; assay type: cell-based, African Green Monkey
Procedure: (§1) Protein extracts were prepared with lysis buffer (150 mM NaCl, 50 mM Tris-HCl (pH 8), 1% NP-40, 0.5% deoxycholate acid) with protease inhibitors. Lysates containing equal amounts of total protein were pre-cleared overnight with 1 mg mouse IgG (Sigma) coupled with protein A/G-Sepharose mix (Amersham Biosciences) and the beads centrifuged. Supernatants were immuno-precipitated using 5 μl of anti-ARTS antibody for 4 h, anti-XIAP antibody, rabbit anti-myc antibody, or mouse IgG (negative control). Protein A/G Sepharose beads were added for 1 hour and washed four times with PBS. Antibodies against XIAP (as above), Myc (Santa Cruz), or anti-ARTS (NT) antibodies directed against the common N′ terminus of ARTS and H5 (ProSci Incorporated) were used for Western blot.

COS-7 cells = assay: Immunofluorescence of ARTS and XIAP localization in COS-7 cells; assay type: cell-based, African Green Monkey; conditions: COS-7 cells, 50 μM etoposide for 16 hour, with BOC
Procedure: Cells were fixed with 4% paraformaldehyde in PBS for 20 min at room temperature, washed with PBS, permeabilized with 0.5% Triton-X in PBS for 5 min, and incubated with primary antibodies for 2 hours at room temperature (rabbit polyclonal anti-ARTS (1:20,000; Sigma), monoclonal anti-ARTS, and/or monoclonal anti-XIAP (1:500; used in subsequent Examples). Cells were washed three times with PBS/0.1% Triton-X and incubated with FITC conjugated anti-mouse and Rhodamin^TX-conjugated anti-rabbit secondary antibodies (Jackson). Images were analyzed using a confocal laser microscope (Zeiss LSM 510). Mitochondria were visualized with MitoTracker® Red CMXRos (Molecular Probes/Invitrogen).
For caspase inhibition, we added […] of BOC-Asp(Ome)CH2F (Enzyme Systems Products) one hour prior to addition of the apoptotic agents.

XIAP [2] = assay: XIAP protein levels by Western blot in COS-7 cells; assay type: cell-based, African Green Monkey
Procedure: as §1
Stably transfected COS-7 pE-ARTS cells were generated using the pEF1-IRES vector (Hobbs S et al, Biochem Biophys Res Commun 252: 368-372, 1998). The construct contains an EF-1 promoter followed by a multi cloning site, an EMC (Encephalomyocarditis virus) internal ribosome entry sites (IRES), and a puromycin resistance gene. AU5-tagged ARTS was inserted into the XhoI site downstream of the EF-1 promoter. The construct was stably transfected into COS-7 cells. The cells were maintained in medium containing 4 μg/ml puromycin.
Cells were treated for 2 hours with […] of the proteasome inhibitor (MG132, Calbiochem) prior to induction of apoptotis.

[3] = target: T1, Myc epitope-tagged wild-type XIAP (Homo sapiens (Human), UniProt P98170 1-497); assay: co-IP with agarose-anti-myc beads from co-transfected COS-7 cells, Western blot
T1 construct: Expressed by transient transfection in COS-7 cells and used as cell lysate; The construct came from Dr. Colin S. Duckett; also called myc-tagged XIAP; mycXIAP
T1 sequence (P98170 whole entry): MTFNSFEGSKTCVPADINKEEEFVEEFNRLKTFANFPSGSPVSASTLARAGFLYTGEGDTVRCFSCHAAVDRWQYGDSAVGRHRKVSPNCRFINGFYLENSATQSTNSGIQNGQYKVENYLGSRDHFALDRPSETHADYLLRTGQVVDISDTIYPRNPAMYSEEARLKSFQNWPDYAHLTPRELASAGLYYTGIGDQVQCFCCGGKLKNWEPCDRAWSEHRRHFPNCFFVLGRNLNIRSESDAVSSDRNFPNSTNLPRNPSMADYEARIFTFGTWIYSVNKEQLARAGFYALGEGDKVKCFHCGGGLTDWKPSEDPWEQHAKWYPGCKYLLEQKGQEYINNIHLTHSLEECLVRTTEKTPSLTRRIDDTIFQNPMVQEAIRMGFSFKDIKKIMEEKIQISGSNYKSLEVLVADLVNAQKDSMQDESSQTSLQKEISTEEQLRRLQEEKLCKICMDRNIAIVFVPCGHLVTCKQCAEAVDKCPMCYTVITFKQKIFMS
Procedure: FIG. 4. ARTS binding to XIAP is specific and related to its apoptotic function. A. In-vivo binding of ARTS to XIAP was tested using co-IP with anti-ARTS, anti-XIAP or mouse IgG as a negative control, followed by anti-XIAP Western blot. B. Lysates of COS-7 cells co-transfected with pcDNA-mycXIAP and AU5-ARTS, AU5-ARTSmGTP or H5 DC were co-immunoprecipitated using agarose-anti-myc beads, followed by Western blot analysis with rabbit anti-myc and anti-ARTS. […] COS-7 cells were transiently transfected with AU5-ARTS, AU5-ARTSmGTP, AU5-ARTSDC or AU5-PNUTL2, and percent apoptosis determined. […] P-values (Anova) were 0.03 for non-treated cells, compared to 0.000004 for 1 hr and 0.00001 for 3 hr STS treatment.
Protein extracts were prepared with lysis buffer (150 mM NaCl, 50 mM Tris-HCl (pH 8), 1% NP-40, 0.5% deoxycholate acid) with protease inhibitors. Lysates containing equal amounts of total protein were pre-cleared overnight with 1 mg mouse IgG (Sigma) coupled with protein A/G-Sepharose mix (Amersham Biosciences) and the beads centrifuged. Supernatants were immuno-precipitated using 5 μl of anti-ARTS antibody for 4 h, anti-XIAP antibody, rabbit anti-myc antibody, or mouse IgG (negative control). Protein A/G Sepharose beads were added for 1 hour and washed four times with PBS. […]

GST-XIAP fusion protein = target: T2, GST-XIAP fusion protein (Homo sapiens (Human), UniProt P98170 1-497); assay: GST-XIAP pull-down from lysate of transfected COS-7 cells, Western blot with anti-AU5
T2 construct: also called pGEX-XIAP; not shown: glutathione-S-transferase (GST) of a pGEX vector
T2 sequence (P98170 whole entry, the tested form may be a part): as the sequence (P98170 whole entry) above
Procedure: FIG. 3. ARTS specifically binds XIAP in vitro. In vitro binding was tested using a GST pull-down assay. A-B. COS-7 cells were transiently transfected with myc-tagged XIAP. GST pull-down was performed using GST-ARTS and Western blot using anti-XIAP and (A) and anti myc (B). C. COS-7 cells were transiently transfected with AU5-ARTS, AU5-ARTSDC or AU5-H5. GST pull down was performed using GST-XIAP and Western blot with anti-AU5. Binding to glutathione beads alone served as a negative control.
Cells were lysed in RIPA buffer (150 mM NaCl, 50 mM Tris-HCl (pH 8), 1% NP-40, 0.1% SDS, 0.5% deoxycholate acid containing protease inhibitors (mini Complete, Roche)). Samples were divided into two tubes; one was rotated for 4 h at 4° C. with GST-ARTS fusion protein coupled with the glutathione beads, or GST-XIAP fusion protein. The second tube was incubated with glutathione beads alone (negative control). Samples were centrifuged at 4000-RPM at 4° C. for 4 minute and washed five times in lysis buffer, then boiled in sample buffer for 5 minutes to elute bound proteins Proteins were separated on 12.5% SDS-PAGE gel followed by Western blot analysis using monoclonal anti-ARTS antibody (Sigma), monoclonal anti-XIAP antibody (BD Transduction Laboratories) or monoclonal anti-myc antibody (Clontech). […]

COC(=O)CC(NC(=O)OC(C)(C)C)C(=O)CF (stereo not drawn) [BOC, BOC-Asp(Ome)CH2F, reference compound]
formation of ARTS-XIAP complexes (XIAP [1]; COS-7 cells treated with staurosporine in the presence of caspase inhibitor BOC): did not inhibit, and in fact slightly increased | nuclear translocation of ARTS (COS-7 cells): nuclear translocation of ARTS was blocked | sensitivity of the reduction of XIAP protein to caspase inhibition (XIAP [2]; COS-7 cells treated with staurosporine with or without BOC): not sensitive

CC(C)C[C@@H](C=O)NC(=O)[C@H](CC(C)C)NC(=O)[C@H](CC(C)C)NC(=O)OCc1ccccc1 [MG132, reference compound] (Cbz-Leu-Leu-Leu-aldehyde)
ARTS-induced reduction of XIAP levels (XIAP [2]; cells treated for 2 hours with 20 mM MG132 prior to induction of apoptosis, data not shown): blocked ARTS-induced reduction of XIAP levels

B1: AU5-H5 (other, human, UniProt O43236-1 1-478, looked up)
chain: MDRSLGWQGNSVPEDRTEAGIKRFLEDTTDDGELSKFVKDFSGNASCHPPEAKTWASRPQVPEPRPQAPDLYDDDLEFRPPSRPQSSDNQQYFCAPAPLSPSARPRSPWGKLDPYDSSEDDKEYVGFATLPNQVHRKSVKKGFDFTLMVAGESGLGKSTLVNSLFLTDLYRDRKLLGAEERIMQTVEITKHAVDIEEKGVRLRLTIVDTPGFGDAVNNTECWKPVAEYIDQQFEQYFRDESGLNRKNIQDNRVHCCLYFISPFGHGLRPLDVEFMKALHQRVNIVPILAKADTLTPPEVDHKKRKIREEIEHFGIKIYQFPDCDSDEDEDFKLQDQALKESIPFAVIGSNTVVEARGRRVRGRLYPWGIVEVENPGHCDFVKLRTMLVRTHMQDLKDVTRETHYENYRAQCIQSMTRLVVKERNRNKLTRESGTDFPIPAVPPGTDPETEKLIREKDEELRRMQEMLHKIQKQMKENY
notes: Expressed in transfected COS-7 cells; The construct came from Dr. Seong-Jin Kim; also called pEF1-AU5-H5; H5 septin protein; not shown: AU5 tag
binding result [3]: no binding | binding result (GST-XIAP fusion protein): no binding

B2: AU5-ARTSmGTP (other)
chain: MIKRFLEDTTDDGELSKFVKDFSGNASCHPPEAKTWASRPQVPEPRPQAPDLYDDDLEFRPPSRPQSSDNQQYFCAPAPLSPSARPRSPWGKLDPYDSSEDDKEYVGFATLPNQVHRKSVKKGFDFTLMVAGESGLENPTLVNSLFLTDLYRDRKLLGAEERIMQTVEITKHAVDIEEKGVRLRLTIVDTPGFGDAVNNTECWKPVAEYIDQQFEQYFRDESGLNRKNIQDNRVHCCLYFISPFGHGYGPSLRLLAPPGAVKGTGQEHQGQGCH
notes: not shown: AU5 tag at the N' terminus
binding result [3]: no binding

B3: ARTSmGTP: ARTS mutant, three amino acids (G K S with E N P) replaced at the GTP binding site (protein)
chain: B2 chain
modifications: left off: small tags and cut ends
binding to XIAP in co-IP (XIAP [1]; COS-7 cells co-transfected with pcDNA-mycXIAP and AU5-tagged construct): Neither of these mutants bound to XIAP

B4: AU5-ARTS ΔC (other)
chain: MIKRFLEDTTDDGELSKFVKDFSGNASCHPPEAKTWASRPQVPEPRPQAPDLYDDDLEFRPPSRPQSSDNQQYFCAPAPLSPSARPRSPWGKLDPYDSSEDDKEYVGFATLPNQVHRKSVKKGFDFTLMVAGESGLGKSTLVNSLFLTDLYRDRKLLGAEERIMQTVEITKHAVDIEEKGVRLRLTIVDTPGFGDAVNNTECWKPV
notes: 1-206 is 274 minus 68; also called AU5-ARTSDC; not shown: AU5 tag at the N' terminus
binding result (GST-XIAP fusion protein): no binding
